Reference: the domain aggregation screens of Martell et al. (2025)

Assay: soluble fraction after stress (log2 fold change); higher = more stays soluble; pooled small domains, quantitative proteomics
Conditions: stress: 75 degC
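Note: 20 min heating vs room temperature control held 20 min.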

Row | Sequence | soluble fraction (log2)
1 | HMQTTEDMEINAKVDEYLREMYLWNDEYKTLNLDHNKGYEDFFYDALGSMTTNTLDKKTYVGSDGKTYYNL | -0.205
2 | HMQTYTYYIAKNDISIGQKITPDMLIEKQVNLGDSKDRYLSREQLETGKYIAVRQIPAGELISSASANE | 0.102
3 | HMQVAPQVERLLRVMGNETLSLSDIMGRMGLSDKKNFRESYLVPALRSAVIEMTIPDKPNSSLQKYRRIHE | -0.634
4 | HMQVEEKNKKIELYIEGKIKELESNLMYVPNENKKKLLMAFMNRNEDIEIIKTKIDTIFNKSVAAYKENM | -0.302
5 | HMQVIDNHWRPSRDALDILLRDGISEHFIEDAIPEFILYWRERGTQDSNWNSRFLQHIRLQWARYTNAV | -1.67
6 | HMQVPDLYRTLGVGRDATTEAIEAAYVGWQARLSAGEPISTQEWERLRYAHEVLSNPQRRSLYDSLVAET | -0.0937
7 | HMQVPVNVSMEILDWVIAHIKIDALPNQIREYLNLWVNGEKEPTFNQVEKVSKATGIPLGYFFLQTPPIED | -1.79
8 | HMQVQHVWNRLKRPNGDVLYEINRDHPLVSASLDAAADRGAIETLLRQIEQSLPVNQLYVDMNADEHFE | -0.602
9 | HMQVSDAAQLAEVVKTVLAENPAAVGDYRKGKKAAIGFLLGQVMRHMRGTANPAVARQLLEQALEDE | -0.076
10 | HMQVSDLSAIDSLIDKVLSEQQAAVQDFRSGQGKAMGFLIGKVMQASDGKANPKVIRELMGKKLA | 0.0534
11 | HMQVSIGERVKLARMSAGLNQRQLGKEMGMSAMAISKYETGEVVPNSRVLIQLSQTLHVPLDFFFRS | -3.04
12 | HMQVTDADFDQIRLAVLSQLKQNSLTVAELLKIIPFKEQKVMPVIRFLIDNRVLEHGTDMKLTVGNSVK | -0.223
13 | HMQVTIGADLAEHAARLDVQISDVVKLIKSGVSEGEIKVGLTKLETRLAHPELALVENKLAYLKALIAES | -2.27
14 | HMQYALEDDLDSAIKLLTGKGLSGTVAWGWSDTYINVGKKSYSMEFIAKMLLRLGEGSRVTIQVDPA | -4.62
15 | HMQYIINFEYSGMLLREYLRGVLGLSHGTLTALKKDPLGILLNGEHATVRAVLHAGDRLTLALE | -3.51
16 | HMQYKVMDVTVDGNPVIEFQNLNSKIKWIENNPDAIIQNIKTSSFEADQKRIVGTSRGPFWIVIKPDF | -0.424
17 | HMQYRQRRGLERMELILDAATRVVAEVGYERTTTNAIATRAGISPGSLYQYFSSKEDIASALWERYAE | -0.0812
18 | HMRAGEAVTGQVIGVKEDEIILSIAGSKSEGIITRSEFTNEPNVDLTTKVSVGDELEVKVLKVNDGEGMAS | -0.317
19 | HMRAKPLILLDGREISAEELFSLDKNSIKSIEVLKDETALAQYGEKAKNGVVLVVTKSAAAS | 0.00789
20 | HMRALPAGQADLLKWIDGVTPRSVEELELLSGLEPGRLSELLMELELAGIVRAVAGDSYIKISKS | -0.649
21 | HMRAPETEITYTEFKTALRAGQIETATVGIEQISGKLTDGDLYRTVRVDDPDLLKDLEANHVNAAGRV | 0.0537
22 | HMRASQGRNELILSLLRGHELSILELLEGLEKQGVRVARPTLTKDLNELVSRGSVEATAPPRSKNRTYRIP | -0.986
23 | HMRDFLMDSTKNKLSKDQVQLSRIFLWFGNDFGSKAERLEFISRYSGMDFNQPKIDYLTYDWSLNQ | 0.286
24 | HMRDLITYVVQINGKLRGKLEVAPDTDPEELKALALEVENVKRSLEGWVVKKVIVVPGKMVSIAAG | -1.77

Row | Sequence | soluble fraction (log2)
25 | HMRDLLPHFQRELQFLQTHRNEFAAAYPELGGRLATASDLLDDPHVERMVQSFALLAARVHKRLDDDF | 0.121
26 | HMRDLTARQQQILALIRQHIADTGFPPTRAEIAAQLGFRSPNAAEEHLKALARKGVIELASGASRGIRLK | -0.86
27 | HMRDPFDALSARERAVASLVQRGLRNKEVASELGLTEGTVKVHLHKVFDKLGIRGRTELILLAQER | -1.35
28 | HMRDQAIDIYKTVHSVAEPYKEVFLLRVLGELSFKEISHIFGKSESWAKVTFFRAKIKVVEKREES | -3.97
29 | HMRDQQHNIYLLEKAKRLYEEFLGDNRHIIAAEMARFEAVLETQDAIIIQRAQQQFSEFLNRFDG | -2.12
30 | HMRDRYEYLKELRLYLSPLGRTEEDRVIEYYAELIGDKIESGIPENGVLSQLGTPRELADKILAETQEY | -0.377
31 | HMRDSLVGLEGVVVREVDDETLAGKVQIGSMEWSARSESGRIPAGRRVVVLRAEGVHIVVKEV | -0.407
32 | HMRDSWNEATKEKRYTEAYDALNSALKKTPATPHALSDALWIARELGRTNEEVQRLEWRLYALLTWIS | 0.241
33 | HMRDTDAEVTYKLNEPFKTMGSVSVEGKVLEFAGSKWFARAAEFASNTEVYPLAKNRVRLTFTFHGLTAP | 0.146
34 | HMREEFIGVLDGKVAIFHGRPERKGPLKEVTAIEVDKLPRQEQADLEKGLVIRTDKEKLQLMEGLAALLD | 0.683
35 | HMREELIALYRAIARLSEDEQELLNLFYFARRPLSEIAQLTGMTPGAAKTRLYRARRHLRREMEEDGYG | -1.07
36 | HMREGLRHLRVRMPGGAGETLAMLYREGEVLSQSSDGAFIEVEIRVAQSVAGRLLQMPGVQLTEEVG | -0.941
37 | HMREGNELLGKEGVTVSELRPAGIALIDGRRTDVVTDGEFVAVDQAVEVVEVSGNRVVVRRS | 0.305
38 | HMREIDIWVAEDADSQRIDKYLSMVVEDLSRSRIASLIEGGSILVNGEVIRAKYKVKPADHITAAFEDEM | -1.27
39 | HMREIKSNEILLEVENLKNSEFFNDINFNIKKGEIVGFSGLIGAGRTELALTLFGYYKAESGKVIQ | 0.101
40 | HMREIRIIAEEGHGRLDAFLAGREELGLSRSRIKGLIEEGQVTLNGAVPKAKQPVSPGDEIVVSVPD | 0.192
41 | HMREKMKGKILDYNFQESRGIISADDGNRYSFENSQWKGTQSPKVNQIVDFEIDGQNAKDIYLDK | 0.0796
42 | HMRESLSEAERHPRYLEGEDVVRMFLLMGDLSRVEAEVIALQWNAQEADRVGLPQDAKVFRTRAR | -0.523
43 | HMREVDKRYYKINIAGTDRIFTNVYRVGDRYSAYEADKNGKPGKFLYSLSQAEIDRAVISGSFDFK | -0.225
44 | HMREVSPEDLALMRRIDAWHLEHPFAGARLLRDLLRPEGFQAGRRHIGTLMARMGIEALYRK | -0.383
45 | HMREYVGLSPFNKEKTPSFYVNDEKGQFFDFSSGKNGDLITFLQETERLTFMEAVERLAAEAGLPMPA | -0.742
46 | HMRFANGHLIWDTIIELRNAERRINRRALADLTGLKPGVVDDHVERWIEKDQLRRAGNGELEVV | -1.36
47 | HMRFMRVSQSKSKNSTSLYIIESVYTKDNKHTTRIVKKLGTVEELSKEHEDPLAWAKEVAKQMTEEAEQN | -0.569
48 | HMRFNIGNVIEHYKLNTEDLAKVLFPTVKYPKQAFDRVLKGEANLDVIQLERLANHIGVLVTDLF | -1.18

Row | Sequence | soluble fraction (log2)
49 | HMRFQGKISDWNDEKGYGFVEPNGGGTRAFVHIKSFTDLPRRPINGDIIIYETTTDEKNRVQANNISFTR | -0.194
50 | HMRFSYLNIETRKDISSLINKSEITHSSYNNNEYLYKIKSKKTDDFKDLISLIDEKDLISYSIDS | -1.14
51 | HMRFTVSDKMDMLLKSLSAGQSMPFKSLFASASTKSEVIVTFLALLELMKLNQFVVWQDQILGEIEIERR | -0.751
52 | HMRGDQLREHLLWTAKDVFLELGFERASMDAVAARAETSKRSLYAHFESKEKLFLAVIDLVRG | -3.54
53 | HMRGESFSTLVSILQEMSARKAAQVLNGLSEGLAVEVLRALPSDVAGDILGRMDAAKAAALMEQLST | -0.46
54 | HMRGGLATLTPRERQVLALMAEGRSNAGIAAELVVSGGAVEKHVASIFTKLGLPPDESDNRRVLAVLRHLG | -1.74
55 | HMRGHASVEIKRIVYKYKLTDQELAKITGMKASDFPIYHDHLQLILPKRYWARVLDALQNYEKEHES | -4.04
56 | HMRGINDLSLVDPQGRIRKDGEQYVVAFGRHKGKEISQIISQDPSYLNWLLSPKGIEDDATRELIRTQYS | -0.206
57 | HMRGPTIELLIQKSALYEELDDSENALKEILKAFDRDSLNSDVLNRLVNLLLNDKQIDRAENYNQLLIEK | -0.17
58 | HMRGPVRLDLPVSGLSRSSGPALAKILQAVPGVHKAHVNVRSGKATLEYDPARAKVTDFVEVIRSAGFGT | -0.272
59 | HMRGQGRILAMLKIQPEIATKDLAYLLGIRQQSLNELLKKLEKNSYVERRPSEKDRRVMVVHLTEKGKE | -0.782
60 | HMRGQLADLWLPREQARRAAEIVAARPVPLGSVKTWIARGKLAPRKTGTGPALYRVGALVSLLAKS | -2.14
61 | HMRGVNEISYTTLISEVSGGNVRDVVISGDEITGTFNDGSRFHSFSPDDPQFIERLNDQGVIINVKPL | 0.168
62 | HMRHDSEGYYRLIGVPPDADDAELKEAAKKRLMEAHPDHGGSEDEFVEVYRAYRTLTDPSARAEYDARP | 0.28
63 | HMRHEDLSPAQKAAALVVAVGSENAAQVLRHLSEEEVEILAGEVARLGEVDPDVVDSVMREVYEQMMGH | -0.642
64 | HMRHKSNRRLTAAHQIEQQIQKLLMENTMEAKELKESLNFAAKDIDTVLSWLVDKDKVRINAINQYYWT | -0.434
65 | HMRHRITEKDKQFRIGQQVWHSEYGKGMVLSVDGIGSSARLTVSFVSGKLAKIIGTFVSTEP | -3.47
66 | HMRIETLESLANRLAYKAYRTGRKVELEPMNPFERRVIHTALQNSKYATTESEGEDMNRHIVIVPKEGG | -0.152
67 | HMRILGIDPGSVVTGYGVIDKSGNYLRHVLHGEIKPHKGYLLSEVLMDIFSKLSAVIVETNPQSV | 0.271
68 | HMRINIVKSKNAEQLYIIHSYRINGKNTSKIYKKLGTMADLLPLHNHDRDQVLAWAKEQARLATEQYDQEN | -2.79
69 | HMRIQLNFSDQLLDDVMSEALKHIDRKSQEHHIEKQMDDEFMLVYIDARLIIQVIVNIINNAIKY | 0.168
70 | HMRITEGEIVEIQEGDNRALVGVGEKLEGIISLDEIRGADGKLLFNVGDKITVMVMGHYNERPK | 0.244
